Laboratory results published in the supplement of paper PMC9112550, “Optimization of the antimicrobial peptide Bac7 by deep mutational scanning” (BMC Biology, 2022).

System: Escherichia coli TOP10
Assay: shrunken log2 fold change of peptide-encoding DNA abundance (4.5 h post-induction vs induction); higher = less antimicrobial activity (less host growth inhibition)
Conditions: time post-induction: 4.5 h; library: site-saturation at positions 5, 18, 19, 20
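Also: peptides expressed intracellularly from a pBAD plasmid library in pooled LB shake-flask culture, induced with 0.3% L-arabinose, DNA abundance read by NGS, three biological replicates, DESeq2 with apeglm shrinkage.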

| Sequence | shrunken log2 fold change |
| --- | --- |
| RRIRHRPPRLPRPRPRPNFSPRP | -0.415 |
| RRIRHRPPRLPRPRPRPSENPRP | -0.096 |
| RRIRFRPPRLPRPRPRPGATPRP | 0.357 |
| RRIRRRPPRLPRPRPRPNVCPRP | 0.0167 |
| RRIRKRPPRLPRPRPRPIGHPRP | 0.0336 |
| RRIRTRPPRLPRPRPRPSGMPRP | -0.34 |
| RRIRKRPPRLPRPRPRPDWKPRP | -0.0149 |
| RRIRNRPPRLPRPRPRPRPTPRP | 0.658 |
| RRIRIRPPRLPRPRPRPVPLPRP | -0.442 |
| RRIRVRPPRLPRPRPRPWMGPRP | -0.339 |
| RRIRKRPPRLPRPRPRPKCRPRP | 0.175 |
| RRIRERPPRLPRPRPRPQHKPRP | -0.467 |
| RRIRCRPPRLPRPRPRPPMPPRP | 0.45 |
| RRIRRRPPRLPRPRPRPAMCPRP | 0.319 |
| RRIRGRPPRLPRPRPRPSQIPRP | -0.111 |
| RRIRVRPPRLPRPRPRPMNVPRP | -0.0915 |
| RRIRKRPPRLPRPRPRPCTWPRP | -0.15 |
| RRIRYRPPRLPRPRPRPIQHPRP | -0.89 |
| RRIRCRPPRLPRPRPRPNQGPRP | -0.203 |
| RRIRIRPPRLPRPRPRPIKIPRP | -0.0548 |
| RRIRFRPPRLPRPRPRPMILPRP | -0.29 |
| RRIRQRPPRLPRPRPRPQILPRP | -0.132 |
| RRIRCRPPRLPRPRPRPFSKPRP | -0.203 |
| RRIRTRPPRLPRPRPRPCTGPRP | -0.0103 |
| RRIRYRPPRLPRPRPRPIIDPRP | -1 |

| Sequence | shrunken log2 fold change |
| --- | --- |
| RRIRPRPPRLPRPRPRPPNPPRP | 0.453 |
| RRIRQRPPRLPRPRPRPLMHPRP | -0.00724 |
| RRIRNRPPRLPRPRPRPYVFPRP | -0.7 |
| RRIRMRPPRLPRPRPRPDFTPRP | 0.463 |
| RRIRIRPPRLPRPRPRPDVIPRP | -0.00836 |
| RRIRARPPRLPRPRPRPMWMPRP | 0.0208 |
| RRIRQRPPRLPRPRPRPRKNPRP | 0.309 |
| RRIRWRPPRLPRPRPRPDYVPRP | -0.208 |
| RRIRHRPPRLPRPRPRPHDLPRP | 0.0509 |
| RRIRPRPPRLPRPRPRPHNLPRP | -0.131 |
| RRIRPRPPRLPRPRPRPYDPPRP | -0.301 |
| RRIRYRPPRLPRPRPRPNHTPRP | -0.259 |
| RRIRSRPPRLPRPRPRPIVVPRP | 0.027 |
| RRIRVRPPRLPRPRPRPLYLPRP | -0.507 |
| RRIRFRPPRLPRPRPRPWNTPRP | -1.19 |
| RRIRQRPPRLPRPRPRPKGLPRP | 0.0353 |
| RRIRKRPPRLPRPRPRPNAEPRP | 0.531 |
| RRIRVRPPRLPRPRPRPHCSPRP | -0.0738 |
| RRIRARPPRLPRPRPRPQCRPRP | -0.161 |
| RRIRTRPPRLPRPRPRPPWLPRP | 0.547 |
| RRIRGRPPRLPRPRPRPLQNPRP | 0.693 |
| RRIRTRPPRLPRPRPRPSLEPRP | -0.0452 |
| RRIRHRPPRLPRPRPRPNTQPRP | -0.248 |
| RRIRGRPPRLPRPRPRPTWPPRP | 0.52 |
| RRIRSRPPRLPRPRPRPWINPRP | -0.205 |

| Sequence | shrunken log2 fold change |
| --- | --- |
| RRIRMRPPRLPRPRPRPPQHPRP | 0.817 |
| RRIRYRPPRLPRPRPRPKCAPRP | 0.0118 |
| RRIRHRPPRLPRPRPRPWPYPRP | -0.01 |
| RRIRERPPRLPRPRPRPQRPPRP | -0.0471 |
| RRIRKRPPRLPRPRPRPGDFPRP | 0.18 |
| RRIRERPPRLPRPRPRPLDNPRP | -0.487 |
| RRIRMRPPRLPRPRPRPKEHPRP | 0.617 |
| RRIRFRPPRLPRPRPRPFEVPRP | -0.571 |
| RRIRIRPPRLPRPRPRPNWLPRP | -0.0339 |
| RRIRKRPPRLPRPRPRPRSYPRP | -0.134 |
| RRIRIRPPRLPRPRPRPMFWPRP | -0.128 |
| RRIRMRPPRLPRPRPRPCSKPRP | -0.00101 |
| RRIRPRPPRLPRPRPRPCVWPRP | 0.0579 |
| RRIRYRPPRLPRPRPRPIAIPRP | -0.217 |
| RRIRLRPPRLPRPRPRPHAKPRP | -0.0928 |
| RRIRHRPPRLPRPRPRPLCVPRP | 2.97 |
| RRIRARPPRLPRPRPRPKEAPRP | 0.516 |
| RRIRRRPPRLPRPRPRPWVYPRP | 0.0234 |
| RRIRCRPPRLPRPRPRPRHSPRP | -0.102 |
| RRIRWRPPRLPRPRPRPIKGPRP | -0.197 |
| RRIRMRPPRLPRPRPRPEQHPRP | 1.06 |
| RRIRTRPPRLPRPRPRPGPMPRP | 0.101 |
| RRIRLRPPRLPRPRPRPCDTPRP | -0.131 |
| RRIRWRPPRLPRPRPRPSHLPRP | -0.517 |
| RRIRMRPPRLPRPRPRPLPLPRP | 0.718 |
